Results reported in the supplement of paper PMC9112550, “Optimization of the antimicrobial peptide Bac7 by deep mutational scanning” (BMC Biology, 2022).

Test system: Escherichia coli TOP10
Assay: shrunken log2 fold change of peptide-encoding DNA abundance (4.5 h post-induction vs induction); higher = less antimicrobial activity (less host growth inhibition)
Conditions: time post-induction: 4.5 h; library: site-saturation at positions 5, 18, 19, 20
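Note: peptides expressed intracellularly from a pBAD plasmid library in pooled LB shake-flask culture, induced with 0.3% L-arabinose, DNA abundance read by NGS, three biological replicates, DESeq2 with apeglm shrinkage.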

| Sequence | shrunken log2 fold change |
| --- | --- |
| RRIRMRPPRLPRPRPRPRVDPRP | 0.95 |
| RRIRKRPPRLPRPRPRPPSFPRP | 0.288 |
| RRIRHRPPRLPRPRPRPPDTPRP | -0.071 |
| RRIRKRPPRLPRPRPRPEQRPRP | 0.431 |
| RRIRGRPPRLPRPRPRPDGSPRP | 0.85 |
| RRIRGRPPRLPRPRPRPHPIPRP | -0.0927 |
| RRIRIRPPRLPRPRPRPYYVPRP | -0.481 |
| RRIRVRPPRLPRPRPRPFWGPRP | -0.0605 |
| RRIRNRPPRLPRPRPRPMYIPRP | -1.03 |
| RRIRVRPPRLPRPRPRPFAKPRP | -0.307 |
| RRIRCRPPRLPRPRPRPKQVPRP | 0.44 |
| RRIRMRPPRLPRPRPRPEAFPRP | 2.91 |
| RRIRCRPPRLPRPRPRPVMVPRP | -0.211 |
| RRIRHRPPRLPRPRPRPIAMPRP | -0.119 |
| RRIRSRPPRLPRPRPRPVQWPRP | 0.175 |
| RRIRRRPPRLPRPRPRPDQRPRP | -0.0913 |
| RRIRQRPPRLPRPRPRPFSGPRP | -0.0802 |
| RRIRFRPPRLPRPRPRPWPTPRP | -0.0457 |
| RRIRLRPPRLPRPRPRPLFFPRP | 0.417 |
| RRIRTRPPRLPRPRPRPMVNPRP | 0.0818 |
| RRIRVRPPRLPRPRPRPVKIPRP | -0.29 |
| RRIRRRPPRLPRPRPRPHCVPRP | -0.0665 |
| RRIRTRPPRLPRPRPRPREDPRP | -0.147 |
| RRIRMRPPRLPRPRPRPGCEPRP | 1.87 |
| RRIRRRPPRLPRPRPRPTSGPRP | 0.252 |

| Sequence | shrunken log2 fold change |
| --- | --- |
| RRIRSRPPRLPRPRPRPRDFPRP | 0.528 |
| RRIRCRPPRLPRPRPRPIWNPRP | -0.343 |
| RRIRQRPPRLPRPRPRPAAYPRP | -0.169 |
| RRIRIRPPRLPRPRPRPVLWPRP | 0.199 |
| RRIRPRPPRLPRPRPRPLVIPRP | -0.509 |
| RRIRCRPPRLPRPRPRPVFRPRP | -0.128 |
| RRIRRRPPRLPRPRPRPLDFPRP | 0.184 |
| RRIRCRPPRLPRPRPRPCLVPRP | -0.463 |
| RRIRMRPPRLPRPRPRPEFKPRP | 0.335 |
| RRIRARPPRLPRPRPRPPFGPRP | 0.436 |
| RRIRTRPPRLPRPRPRPHWPPRP | -0.078 |
| RRIRERPPRLPRPRPRPHISPRP | -0.3 |
| RRIRQRPPRLPRPRPRPVRQPRP | 0.0135 |
| RRIRARPPRLPRPRPRPIKLPRP | -0.16 |
| RRIRGRPPRLPRPRPRPAPDPRP | 1.07 |
| RRIRVRPPRLPRPRPRPWDLPRP | 0.146 |
| RRIRYRPPRLPRPRPRPSYGPRP | -0.383 |
| RRIRGRPPRLPRPRPRPWIYPRP | -0.372 |
| RRIRPRPPRLPRPRPRPWAYPRP | -0.0727 |
| RRIRDRPPRLPRPRPRPKGRPRP | 0.218 |
| RRIRIRPPRLPRPRPRPSQPPRP | 0.101 |
| RRIRHRPPRLPRPRPRPVPKPRP | 0.0819 |
| RRIRFRPPRLPRPRPRPVFIPRP | -0.811 |
| RRIRTRPPRLPRPRPRPFIYPRP | -0.657 |
| RRIRKRPPRLPRPRPRPNKNPRP | 0.125 |

| Sequence | shrunken log2 fold change |
| --- | --- |
| RRIRFRPPRLPRPRPRPWAEPRP | 0.212 |
| RRIRTRPPRLPRPRPRPENSPRP | 0.032 |
| RRIRERPPRLPRPRPRPCAYPRP | -1.05 |
| RRIRWRPPRLPRPRPRPMYNPRP | -0.387 |
| RRIRIRPPRLPRPRPRPPEPPRP | 0.105 |
| RRIRQRPPRLPRPRPRPKDNPRP | -0.23 |
| RRIRERPPRLPRPRPRPKPSPRP | 0.229 |
| RRIRTRPPRLPRPRPRPRHTPRP | -0.16 |
| RRIRGRPPRLPRPRPRPEWQPRP | 0.783 |
| RRIRFRPPRLPRPRPRPDDFPRP | 0.0834 |
| RRIRMRPPRLPRPRPRPGTKPRP | 0.844 |
| RRIRQRPPRLPRPRPRPQCEPRP | -0.234 |
| RRIRPRPPRLPRPRPRPHAFPRP | 0.0176 |
| RRIRNRPPRLPRPRPRPCICPRP | -0.33 |
| RRIRLRPPRLPRPRPRPKNAPRP | -0.238 |
| RRIRWRPPRLPRPRPRPQVIPRP | -0.127 |
| RRIRFRPPRLPRPRPRPDAVPRP | -0.0144 |
| RRIRFRPPRLPRPRPRPKPEPRP | 0.37 |
| RRIRRRPPRLPRPRPRPPQGPRP | 0.856 |
| RRIRTRPPRLPRPRPRPVLRPRP | 0.11 |
| RRIRKRPPRLPRPRPRPMKSPRP | 0.37 |
| RRIRIRPPRLPRPRPRPPQFPRP | -0.195 |
| RRIRIRPPRLPRPRPRPNMHPRP | -0.805 |
| RRIRYRPPRLPRPRPRPSIDPRP | -0.519 |
| RRIRARPPRLPRPRPRPKEVPRP | -0.0076 |

| Sequence | shrunken log2 fold change |
| --- | --- |
| RRIRLRPPRLPRPRPRPAWGPRP | 0.444 |
| RRIRFRPPRLPRPRPRPWMQPRP | -0.139 |
| RRIRFRPPRLPRPRPRPFAVPRP | -0.354 |
| RRIRNRPPRLPRPRPRPIVLPRP | -0.211 |
| RRIRERPPRLPRPRPRPCGRPRP | -0.0316 |
| RRIRYRPPRLPRPRPRPLSIPRP | -0.129 |
| RRIRLRPPRLPRPRPRPMWEPRP | 0.00629 |
| RRIRLRPPRLPRPRPRPSTTPRP | -0.347 |
| RRIRNRPPRLPRPRPRPRWSPRP | -0.054 |
| RRIRCRPPRLPRPRPRPFAQPRP | 0.00363 |
| RRIRFRPPRLPRPRPRPFFCPRP | -0.206 |
| RRIRERPPRLPRPRPRPYCIPRP | -0.205 |
| RRIRVRPPRLPRPRPRPYAHPRP | -0.38 |
| RRIRKRPPRLPRPRPRPETAPRP | 1.21 |
| RRIRIRPPRLPRPRPRPRKRPRP | 0.178 |
| RRIRCRPPRLPRPRPRPLARPRP | 0.0547 |
| RRIRHRPPRLPRPRPRPFAWPRP | -0.186 |
| RRIRHRPPRLPRPRPRPYSAPRP | 0.0254 |
| RRIRMRPPRLPRPRPRPTSNPRP | 0.00211 |
| RRIRLRPPRLPRPRPRPANNPRP | -0.116 |
| RRIRERPPRLPRPRPRPKDGPRP | 0.0062 |
| RRIRFRPPRLPRPRPRPQDPPRP | -0.00978 |
| RRIRRRPPRLPRPRPRPKHIPRP | 0.0894 |
| RRIRDRPPRLPRPRPRPVVKPRP | 0.0734 |
| RRIRCRPPRLPRPRPRPQDDPRP | 0.0976 |

| Sequence | shrunken log2 fold change |
| --- | --- |
| RRIRVRPPRLPRPRPRPPENPRP | -0.0386 |
| RRIRSRPPRLPRPRPRPKGPPRP | -0.00375 |
| RRIRGRPPRLPRPRPRPIAIPRP | 0.216 |
| RRIRKRPPRLPRPRPRPRVRPRP | 0.755 |
| RRIRMRPPRLPRPRPRPMHFPRP | -0.0157 |
| RRIRCRPPRLPRPRPRPFTQPRP | -0.559 |
| RRIRYRPPRLPRPRPRPRKCPRP | -0.247 |
| RRIRMRPPRLPRPRPRPVSEPRP | -0.38 |
| RRIRVRPPRLPRPRPRPCKCPRP | -0.239 |
| RRIRERPPRLPRPRPRPQRNPRP | -0.214 |
| RRIRMRPPRLPRPRPRPEIKPRP | 3.3 |
| RRIRPRPPRLPRPRPRPIMWPRP | 0.253 |
| RRIRQRPPRLPRPRPRPFLCPRP | -0.336 |
| RRIRRRPPRLPRPRPRPFQPPRP | 0.331 |
| RRIRRRPPRLPRPRPRPPGLPRP | 0.658 |
| RRIRRRPPRLPRPRPRPQQSPRP | 0.273 |
| RRIRCRPPRLPRPRPRPISGPRP | 0.0437 |
| RRIRGRPPRLPRPRPRPVFYPRP | -0.0818 |
| RRIRCRPPRLPRPRPRPKFNPRP | -0.477 |
| RRIRYRPPRLPRPRPRPTQYPRP | -0.531 |
| RRIRKRPPRLPRPRPRPSKWPRP | -0.119 |
| RRIRNRPPRLPRPRPRPAHFPRP | 0.292 |
| RRIRSRPPRLPRPRPRPFLTPRP | -0.437 |
| RRIRDRPPRLPRPRPRPIWTPRP | 0.0557 |
| RRIRKRPPRLPRPRPRPSPFPRP | 0.0443 |

| Sequence | shrunken log2 fold change |
| --- | --- |
| RRIRIRPPRLPRPRPRPKGAPRP | 0.36 |
| RRIRGRPPRLPRPRPRPQCQPRP | 0.316 |
| RRIRARPPRLPRPRPRPNFLPRP | 0.0215 |
| RRIRIRPPRLPRPRPRPGIKPRP | -0.0876 |
| RRIRERPPRLPRPRPRPVDNPRP | -0.107 |
| RRIRDRPPRLPRPRPRPKFIPRP | -0.14 |
| RRIRRRPPRLPRPRPRPTMPPRP | 0.438 |
| RRIRDRPPRLPRPRPRPPYCPRP | -0.0939 |
| RRIRRRPPRLPRPRPRPEWTPRP | 0.0215 |
| RRIRYRPPRLPRPRPRPYRWPRP | -0.175 |
| RRIRNRPPRLPRPRPRPCGHPRP | 0.0743 |
| RRIRMRPPRLPRPRPRPWLRPRP | 0.0433 |
| RRIRNRPPRLPRPRPRPYRLPRP | -0.00674 |
| RRIRERPPRLPRPRPRPRAEPRP | -0.116 |
| RRIRMRPPRLPRPRPRPAGSPRP | 0.2 |
| RRIRIRPPRLPRPRPRPQSIPRP | -0.0763 |
| RRIRFRPPRLPRPRPRPAHIPRP | -0.218 |
| RRIRFRPPRLPRPRPRPLNYPRP | -0.755 |
| RRIRDRPPRLPRPRPRPYLKPRP | -0.443 |
| RRIRYRPPRLPRPRPRPPIRPRP | -0.121 |
| RRIRTRPPRLPRPRPRPTTNPRP | -0.19 |
| RRIRPRPPRLPRPRPRPDDEPRP | 0.331 |
| RRIRSRPPRLPRPRPRPYTAPRP | -0.752 |
| RRIRLRPPRLPRPRPRPQAGPRP | -0.0299 |
| RRIRERPPRLPRPRPRPSRTPRP | -0.111 |
